Consider 18 sequences from the DeepSol protein solubility set.

The nature of the data set: soluble on expression in E. coli; label from the status in PepcDB or PDB records.
Take “MRQIFPGLDPNTYVQHPLHSSERMWPETNCYIDLWIEVLASKGLSPEAMFGFTLTQDFEGDQFTFFKVPLEDLEALYGVRATELAIFDKVEDHIATQLERGRICLIEMDSFYMPDTHGVGYQKEHGKTTVAINRLDLEKRELDYFHNAGFFHLSGEDFDGLFQHHLAETDPPFLPYTEFAKFADSNPSPAHIRKTAERLLKFHFSRRPSANPVRAFAKVFPAQVEKVADRPFGFFHKYAFNTLRQLGANFELAASHLEWLDKQGFSDARDHALKISEVAKTVQFQLARAVTRRKFDALATVLDPAADAWDGLMESLGEKLSDASEAA”: the “soluble on expression in E. coli” value is reported as “soluble”. On to “MRQPEDGNIRLWRYMDFSKFVALISSKSLFLNRVDRFTDPYEGHFSSLNNRLRNSIYEAKYAGSEIDPHKVASAIFDFNSFSRQWTYVNCWHANKYESAAMWDLYAKTEEAIAIETDYNSLAAVLPSEAQLGFVEYIDFDTEWMPENNATYPYLHKRKSFEHEKEVRIIVQEIPRAKSGVGFDREAVNDKHGISLDIDLNQLIKSIHVSPTAPKWLVDLTDTVSKTFGIDAHVKQSDLYKAPIK”, for which the “soluble on expression in E. coli” value is listed as “soluble”. In the case of “MRRAILWFVALAIASVLAQQSRPASDPQVVEAARKEGRLIIYSSTDQSSAQALLDDFRKLYPFIQIEYNDLGTQAIYDRFVSETAAGASSADLLWSSAMELQVKLASEGYALPYDSPEAKNWPANARLGNLAYSTTLEPAVVVYNKRFLKPEEVPTTREGLARLLQEPRMRGRVATWDPERSAVGFTILKADYDRFPAFQELARAFGKAQAALYSSTGAAFEKVISGEHYLAYGFFGSYALLRQRTVKDLGIAYLTDGTVAIQRVAFINKRAAHPNAAKLFLDYLLSLRGQNLMAYTALIFARRETVVGEATPQALYKAVGGKDKVYAIPVSTEILKNLDPAERMRFLTFWRQAVRGQ”, the “soluble on expression in E. coli” value is “soluble”. For “MRRARIQIKPNISKAAKQEPPPEPAPVVEETLPQAPVVAEPRILENVETMTNQVSLTVASESMKSLHVDTSKNHHVHFTDDVIDNEQNRIQETPDIVMISPTSQQNAQFASPNPPARLTPRSRNVSMCEDEAILQPKQPRDKKRFSGREELDTKTWKMSDLTRWNPKNEMTRFKRERRSSTSSSVITKSEIGDLDAPPAPRINAPQVKIGADGRLVIDETSLVVHSAQINHESVWETVEEGRMGAKITSMSFRKRGFGKSSFWSEKETDLFYEVLQCTGQDFGLMSHYLPKRTRPELKAKYNREEKINWARVLNAISHPVRLDGNLEVRISKLMTEMEEEAQEKKAKGEYEKAEEKRIREQNRLQKATERNQAKELVKQAKELERDARNAAKLNMKADKEARAQEKSETRQLEKTALKEARLMATEAKRIAMEARAIIKESRKLEKSKKADSVQSDSHNLEREAERIIRRLLQESQREDRRTAHFNKNDKPAAPKSTEEATTSEVSAPTKSPAPVVVTIDASEGELGDTSTDAADSSSASSSDDDALRKDAARREKQRMKEARRNLKPRKTVADKKPVYVDTTDPKYAQQKVSRAVEMVLKANGNMFDSAGEQDDDFPDPDEMETSAEPVVVEEVAPDPTPPPPENMEENVVEESVPQSVIDVVEEIMRGRSKTPVETAVKPLENTEESKTDGEDRKKRSADVDSGGPSPKVARLEGVDVPVEDSTEVATSSTVTSSSAPSSSSSTTVAPAIKPSTAPKPAIASARRTVKKPNTWSKKK”, the “soluble on expression in E. coli” value is reported as “not soluble”.

Take “MRRCCGDLAASRGGCEPASRNLTRTRLTFAALGRINRPAEHDREDAMTRQEARDHEPRDQDAALSRRTLVRGLALGAAATMAGPALAQTGPAAPPTTITTPPRDFGPNGAPTTYFWDPDIIAVDPSFDDLAQPNTAIKRLYTGVLWAEGPAWSAQGRYLLWSDIPNNRQMRWSEDDGRISVFRSPSNNSNGNSFDFQGRQLSCEHLTRRVTRYEHDGTATVLCDNYNGKKLNSPNDVVAHPDGSYWFTDPPYGGQLYEGEPDAAGGPSNSGGKLNPRIGQPAGFTPGKRELPTNCYRIDPSGRVDLVVTEEQVPDPNGLCFSPDFKKLYVVSTGKGPGDSGPGGKGEIFVFDVGADNKLSNQKRFSDCTIDGVKCGPDGVRCDVNGNVWASSNAGRAVGYSGVTVWSPEGKLLGRIRLPEVCGNICFGGPKRNRLFMAASQSLYAVFTATQGAGPGLEHHHHHH”: the “soluble on expression in E. coli” value is reported as “soluble”. Take “MRRLLWLLTLGALAVALTACPRKAEEEAATETAPAEETSLPGANVRVGLAFDAGGKFDRSFNQSAWEGAQRAAQELGVQIFDFEPADPSQVGQGIRTFAEEGFDLVIGVGFANEPAITATAKEFPNVKFAVIDAVPGEGQLPNALGVVFREHEGSFLVGYVAGKLSRTGVVGFIGGMDIPLIHKFEAGFRAGAEYAFQEDGIQGRVLVGYVGNTPAAWNDPAKAKEIASSQARQGADIIYAAAGGSGLGLIDFVKEEMCLREGGAVRFVREDRFADVPKYPAYEEKCGEGTTPLFFIGVDANQNYLGDTDNDPTTLNHGLTSMVKRVDVAVYDTIKSVVDGTFQGGVKDLGLAEEGVGYALDEYNQALIPEEVKARLEELKQAIINGEIQVPETR”: the “soluble on expression in E. coli” value is “soluble”. Turning to “MRRRGKGGGSVFYHEGKGKWVAQLTWIDPATGRKVKREKHCETRKEAERALADMVVAQAKGLLTDPSRLTTRDFALDYLKRLEREGLRPNSIRLAQEELAHALPSLKDPKAHDPLGRMRLQEVKPVHVRAAVDRVAEAGYAPRTVGRVLMRLKALFREALRLELVARNPAEAVRLRLPKGEKTARALEPQEVARLLETAEASRSKDMALLLRLMLETGLRRGEALALQWRDIDLEAGELTVWRSWTKARGKGAFSEPKTPTAKRKVPLPRGLLLRLKARREELLERLTPKEVDGLFLVGGVKPVDPDAFNHYLRRLAERAGLGRVRVHDLRHTWATLALSRGVPLEVVSERLGHASPTITLNVYRHLLEEERRGWVLDLEELLYPAPRAQA”, the “soluble on expression in E. coli” value is “soluble”.

As to “MRSDKVGSIKDLPSLPAGVKFDPSDKEILMHLEAKVSSDKRKLHPLIDEFIPTLEGENGICYTHPEKLPGVSKDGQVRHFFHRPSKAYTTGTRKRRKVSTDEEGHETRWHKTGKTRPVLSQSGETGFKKILVLYTNYGRQKKPEKTNWVMHQYHLGSSEDEKDGEPVLSKVFYQTQPRQCGSMEPKPKNLVNLNRFSYENIQAGFGYEHGGKSEETTQVIRELVVREGDGSCSFLSFTCDASKGKESFMKNQ”, the “soluble on expression in E. coli” value is given as “soluble”. “MRSLLIALAATVALSLPARADEVTVAVTAIVEHPALDAARDGVKDALAAAGYKEGENLKFIYESAQGNPATAAQIARQFAGEAPSVIVPISTPSAQAVVSSTRDIPVVFTAVSDPLGAQLVKDMEKPGGNVTGLSDLSPVAEHVALIKEILPNVKTIGYLYNSGEANSVSLLAVLKEEAEKAGLSVIESAATKSAEVQGAARALVGRADAIYIPTDNTIISALEGAVAVAEESKLPLFTADTDSVSRGAVAALGFNYYDVGKQTGEVVVRVLKGENPGDIAVKVAAGTDLVINKGAATRMGVTLPESVVGRATRTIE”: the “soluble on expression in E. coli” value was “not soluble”.

“MRSQDKYERFIQLLAHEFFHLWNVKRIRPQALEVFNYDQENYTPSLWFCEGTTSYYDLLIPLRAGIYDAKTYLNYWSKEISRLITTPGRKVQPLSESSFDAWIKLYRPDTNTGNSQVSYYLKGELEHHHHHH”: the “soluble on expression in E. coli” value is recorded as “not soluble”. As for “MRSRRGLLIVLSGPSGVGKGTVRKELFSHEDTRFQYSISVTTRKPREGEVDGVDYFFKEREEFEEMIRNEKLLEWAEFVGNYYGTPIDYVEKTLQEGKDVFLEIEVQGAIQVKKAFPEGVFIFLAPPSLSELKNRIVGRGTETEDVIENRLTVAKEEIDMMDAYDYVVENDQVELACERIKAIVVGEHCRRERVAKYYKEMTEGL”, the “soluble on expression in E. coli” value is “not soluble”.

For the sequence “MRSTELIVERGPSRNEAHSMVNESPSNQPQEQFSLEPKWKTAAAPSCESSSEEAAYPKGNEEEEHNEARPRALCRLTDVSTDHYAKNPDSEEEDAQDEAEGDGSHVGAIPAEAATTARPHDLHKAKKKRSNHAKETKAAETLEKPAAPRKKKPMYKVNIGNVERHPPVPEGVNTPRSVMLCKECGVNPSELARYDRKHFQGAGVSDEVAELRYQSYEKRRCARMAQLKPAYKESIKYDLEDPVSVPAAKRKAQAAEEAPARPAAAAQAAAPPPKLLDEEAQMQRQFEAQHQRLLEQERRKTVTSGYDSDGRRRSPPRAGHFYGASVRSVGSAKSPGRYSRNTSVGARPTVDQPYSAAKIYSASIVESRPLTQSEVIMIDEINEREAHRIDTQERAFVIQENKQLMHVERELIRERLACVRVQKNAEDREKMQQKMHKRNEARQNVVAKRRKKLEAERQARIQDSVAEKAARCHTTNPYASLMLRQMSGFSTCHTSSSFPSQGADVSASREQSSEAE”, the “soluble on expression in E. coli” value is “soluble”. Under “MRSVRRREALREWIMAKLYFNYSTMNAGKSTMLLQASYNYQERGMRTLIFTAAFDDRAGVGRVASRIGLSSEARTFDENTDLFAEVAALHAQAPVACVFVDEANFLSEHHVWQLANIADRLNIPVMTYGLRTDFQGKLFPASKELLAIADELREIRTICHCGRKATMVARFDSEGKVVTEGAQIEVGGNGKYVSFCRRHWVETFNCSLEHHHHHH” stands “not soluble”; under “MRTFESVADLAAAAGEKVGQSDWVTITQEEVNLFADATGDHQWIHVDPERAAAGPFGTTIAHGFMTLALLPRLQHQMYTVKGVKLAINYGLNKVRFPAPVPVGSRVRATSSLVGVEDLGNGTVQATVSTTVEVEGSAKPACVAESIVRYVA”, “soluble”; under “MRTGKQYLESLNDGRVVWVGNEKIDNVATHPLTRDYAERVAQFYDLHHRPDLQDVLTFVDADGVRRSRQWQDPKDAAGLRVKRKYHETILREIAAGSYGRLPDAHNYTFTTYADDPEVWEKQSIGAEGRNLTQNIHNFLKLLREKDLNCPLNFVDPQTDRSSDAAQARSPNLRIVEKTDDGIIVNGVKAVGTGIAFGDYMHIGCLYRPGIPGEQVIFAAIPTNTPGVTVFCRESTVKNDPAEHPLASQGDELDSTTVFDNVFIPWEQVFHIGNPEHAKLYPQRIFDWVHYHILIRQVLRAELIVGLAILITEHIGTSKLPTVSARVAKLVAFHLAMQAHLIASEETGFHTKGGRYKPNPLIYDFGRAHFLQNQMSVMYELLDLAGRSSLMIPSEGQWDDSQSGQWFVKLNNGPKGNPRERVQIGRVIRDLYLTDWGGRQFMFENFNGTPLFAVFAATMTRDDMSAAGTYGKFASQVCGIEFGGAEPTAYAATADYAKALDKGLAPEPAAAESATS”, “soluble”.

Turning to “MRTIERTTIFKRDFKREMKGQHRHLLDTDLRKVIAALANDQPLEIRYRDHALTGNWSNYRDCHIRPDLVLIYRLIGQDRLVLVRLGSHSQLDL”, the “soluble on expression in E. coli” value is recorded as “not soluble”. As for “MRTMIYKILTGCYIVAALVLVAACNDGLDIQTKYPFTVETMPVPKELKVNETAEIRCELKREGRWEDTRYTIRWFLFDGEGTLKLDDGTVLLPNDRYPLEKETFRLYYTPLSDEQSGFTVWVEDSDGQAVELEFDFNADNDKEDGYGTELEHHHHHH”, the “soluble on expression in E. coli” value is on record as “soluble”. Take “MRTSDSHLPLSNLARSDSIEFKDAVINEKWVHSANRRKGHLTPKAPEKKSGWFGGQKSEEELLMERVEQHELEELQTFIAQKLFRVDGIICDEETRILLVEKLMNAKEYPTINHDELAHRYGSSMAGWLRDRLVPSMSDCSSVLQRAAAEFYQNKMSDPLCNWGQLNPEHVSMVAARIAKFSEEMSSKVKWSLLVEPGKFSCHLTEFVQEFNRLDRMFVSNELSDEESLQTAFNANYLTKARSKMVPCAEFSRVKLNDGLGRLDDRNELRNGMFSDEHEFLQEEGYTAKSTYGTTDFIHANYVKGGPLLNTFICAQAPLKNTQEDFWRMVFQEKCQFIVMLNSAVDSSTLGPLDSANRNHCPYYWPRAENESLRFGSFHITCMKVDSKADPLFTITKLKVQKVGGNLLDAEFDEELFLEHWQWDWQYLGDVHWPFRVLRKARQLSTPTIVQCIDGCSKSGTLVSIETALMHFIRGSPITKSLILQSCVFVRLQRRLSVSSVLLYLFIYRVILRWIEPYVNKWYHRAALGLRFKSIGFIQKYNAMIQEFSRITPAY”: the “soluble on expression in E. coli” value was “not soluble”.
